Assay results taken from patent publication US20240027454.

Columns and labels:
[1] = system: T1, 4-([4-(H-Ala-Ala-Pro-Val-Ala)amido N-piperazino]phenyl)-bis-(4-dimethyl-aminophenyl)-carbenium ion
T1 sequence: AAPVX

[2] = system: T2, AAPVA-RBB linked to poly-(N-acroyl-Boc-Lys-OH)-co-(acroyl-Cys(Trt)-OH)
T2 sequence: AAPVX

[3] = system: T3, AAPVA-RBB linked to polymer, product of Step A of Example 62 after trifluoroacetic acid treatment
T3 sequence: AAPVX

CMC 9M31F-AAPF-RBB [4] = system: CMC 9M31F-AAPF-RBB
CMC 9M31F-AAPFA-RBB [5] = system: CMC 9M31F-AAPFA-RBB
[6] = system: Fmoc-AAPF-aminoethyl-(Remazol Black B)-(N-acetyl)-ethylamide
[7] = molecular target: T4, 4-([4-(H-Ala-Ala-Pro-Val-Ala)amido N-piperazino]phenyl)-bis-(4-dimethyl-aminophenyl)-carbenium ion polyacrylamide (not fully specified)
T4 chain: AAPVX

[8] = molecular target: T5, AAAPV-RBB bound to Beads (Sephabeads ECEP, epoxy activated)
T5 chain: AAAPX

[9] = molecular target: T6, AAAPV-RBB linked through Jeffamine EDR 176 to polyacrylate quenched with N,N-dioctyl amine (not fully specified)
T6 chain: AAAPX

[10] = molecular target: T7, AAAPV-RBB polyacrylamide with N,N-dioctylamine anchors (not fully specified)
T7 chain: AAAPX

[11] = molecular target: T8, AAAPVV-RBB linked through Jeffamine EDR 176 to polyacrylate quenched with N,N-dioctyl amine (not fully specified)
T8 chain: AAAPVX

[12] = molecular target: T9, AAAPVV-RBB on polyacrylate bound to Chemicell SiCore Amin beads
T9 chain: AAAPVX

[13] = molecular target: T10, AAAPVV-RBB on polyacrylate bound to SiCore Amin beads, procedure f
T10 chain: AAAPVX

[14] = molecular target: T11, AAAPVV-RBB polyacrylamide with N,N-dioctylamine anchors (not fully specified)
T11 chain: AAAPVX

[15] = molecular target: T12, AAPVA-RBB linked through ethylenediamine-glycyl spacer to polyacrylate (not fully specified)
T12 chain: AAPVX

[16] = molecular target: T13, AAPVA-RBB linked to poly-(N-acroyl-Boc-Lys-OH)-co-(acroyl-Cys(Trt)-OH)
T13 chain: AAPVX

[17] = molecular target: T14, AAPVA-RBB linked to polymer, product of Step A of Example 62 after trifluoroacetic acid treatment (not fully specified)
T14 chain: AAPVX

Fmoc-AAA-indoxyl ester = molecular target: T15, Fmoc-AAA-indoxyl ester
T15 chain: AAA

[18] = molecular target: Fmoc-AAAPV-(N-acetyl)-indoxyl ester
[19] = molecular target: Fmoc-AAPV-4-methoxy-1-naphthol ester
[20] = molecular target: Fmoc-AAPV-4-naphthol ester
[21] = molecular target: Fmoc-AAPV-5-Bromo-4-Chloro-Indoxyl ester
Fmoc-APV-Indoxyl ester = molecular target: T16, Fmoc-APV-Indoxyl ester
T16 chain: APV

[22] = molecular target: T17, Fmoc-F-V-T(Bzl)-F- indoxyl ester (not fully specified)
T17 chain: FVTF

H-AAAPM-RBB = molecular target: T18, H-AAAPM-RBB
T18 chain: AAAPX

[23] = molecular target: HEC-EDR176-N-Propionyl-AAPVA-RBB
[24] = molecular target: N-(Propionyl-AAPV-RBB)-Propylamino HEC
[25] = molecular target: T19, N-[(3-triethoxysilyl)propyl]-N'-[AAAPVV-RBB]urea bound to silica gel (not fully specified)
T19 chain: XAAPVX

[26] = molecular target: T20, Non-bead-bound polymeric material of Example 67 (AAAPVV-RBB polyacrylamide quenched with ethanolamine) (not fully specified)
T20 chain: AAAPVX

[27] = molecular target: Peptide-Labelled beadBALL Amine Microspheres with Long-Chain Linker (PEG(2000)-AAPV-RBB)
[28] = molecular target: T21, Poly-co-[(N-mercaptoethyl acrylamide)-(AAAPV-{RBB}-acrylamide)], procedure a (not fully specified)
T21 chain: AAAPX

[29] = molecular target: T22, Poly-co-[(N-mercaptoethyl acrylamide)-(AAAPV-{RBB}-acrylamide)], procedure b
T22 chain: AAAPX

[30] = molecular target: T23, Poly-co-[(N-mercaptoethyl acrylamide)-(AAAPVV-{RBB}-acrylamide)], procedure a
T23 chain: AAAPVX

[31] = molecular target: T24, Poly-co-[(N-mercaptoethyl acrylamide)-(AAAPVV-{RBB}-acrylamide)], procedure b
T24 chain: AAAPVX

[32] = molecular target: AAPVA-RBB Bound to Paper Membrane
CMC 9M31F-AAPF-RBB [33] = molecular target: CMC 9M31F-AAPF-RBB; remark: listed apart in the source
CMC 9M31F-AAPFA-RBB [34] = molecular target: CMC 9M31F-AAPFA-RBB; remark: listed apart in the source
[35] = molecular target: Fmoc-AAPF-aminoethyl-(Remazol Black B)-(N-acetyl)-ethylamide; remark: listed apart in the source
[36] = molecular target: T25, Fmoc-AAPVAV-{2-hydroxy-3-[1-(5N-RBB-methyl)1,2,3-triazolyl)}propylamide
T25 chain: XAPVAX

H-AAPFA-RBB = molecular target: T26, H-AAPFA-RBB
T26 chain: AAPFX

H-AAPVAA-RBB = molecular target: T27, H-AAPVAA-RBB
T27 chain: AAPVAX

[37] = molecular target: HEC-EDA-N-propionyl-AAPF-RBB
[38] = molecular target: HEC-PEG200-N-propionyl-AAPF-RBB

In the case of elastase, the “release of A-CV, MS-analysis” value [1] is reported as “Treatment of the material with elastase released A-CV, as found by MS-analysis (m/z=484, positive mode)”, the “release of Ala-RBB, MS-analysis” value [2] is reported as “Treatment with elastase released Ala-RBB, as found by MS-analysis (m/z=571, negative mode)” and the “release of A-RBB, MS-analysis” value [3] is reported as “Treatment with elastase released A-RBB, as found by MS-analysis (m/z=571, negative mode)”. For the same molecule, the “release of the dye, ESI MS” value (CMC 9M31F-AAPF-RBB [4]) was “Reaction with elastase is detected using ESI MS to detect the release of the dye”, the “release of the dye, ESI MS” value (CMC 9M31F-AAPFA-RBB [5]) was “Reaction with elastase was detected using ESI MS to detect the release of the dye” and the “cleavage, product found by MS” value [6] was “reaction with elastase to yield the mono-acetylated-Remazol Black B-amino derivative”. For the same molecule, the “release of Ahx-CV, MS-analysis” value (H-AAPV-Ahx-CV) was “Treatment of the product of Example 72 with elastase releases no Ahx-CV, as found by MS-analysis (no m/z=526, positive mode)”.

B1: human elastase from leucocytes (protein)
chain: IVGGRRARPHAWPFMVSLQLRGGHFCGATLIAPNFVMSAAHCVANVNVRAVRVVLGAHNLSRREPTRQVFAVQRIFENGYDPVNLLNDIVILQLNGSATINANVQVAQLPAQGRRLGNGVQCLAMGWGLLGRNRGIASVLQELNVTVVTSLCRRSNVCTLVRGRQAGVCFGDSGSPLVCNGLIHGIASFVRGGCASGLYPDAFAPVAQFVNWIDSIIQ
In the case of B1, the “Human Elastase Cleavage” value [7] is reported as 0(+), the “release of A-CV, mass peak” value [7] is reported as “Treatment with porcine and human elastase releases A-CV, as proven by the appearance of a mass peak at m/z=484” and the “Human Elastase Cleavage” value [8] is reported as 0. For the same molecule, the “Human Elastase Cleavage” value [9] was “+”, the “Human Elastase Cleavage” value [10] was “++” and the “Human Elastase Cleavage” value [11] was “+”. For the same molecule, the “Human Elastase Cleavage” value [12] was 0, the “Human Elastase Cleavage” value [13] was 0 and the “Human Elastase Cleavage” value [14] was “+++”. For the same molecule, the “Human Elastase Cleavage” value (AAPV-RBB-Labelled Silica) was “++”, the “Human Elastase Cleavage” value [15] was “+” and the “Human Elastase Cleavage” value [16] was “+”. The “Human Elastase Cleavage” value [17] was “++”, the “Human Elastase Cleavage” value (Fmoc-AAA-indoxyl ester) was “++” and the “Human Elastase Cleavage” value (Fmoc-AAAA-Indoxyl ester) was 0. The “Human Elastase Cleavage” value [18] was “++”, the “Human Elastase Cleavage” value (Fmoc-AAAPV-3-Indolamide) was “++” and the “Human Elastase Cleavage” value (Fmoc-AAAPV-Indoxylester) was “++”. For the same molecule, the “Human Elastase Cleavage” value (Fmoc-AAPA-Indoxyl ester) was “+++”, the “Human Elastase Cleavage” value (Fmoc-AAPF-Indoxyl ester) was “+” and the “Human Elastase Cleavage” value (Fmoc-AAPV-(2-Napthol)) was “+”. For the same molecule, the “Human Elastase Cleavage” value [19] was “+”, the “Human Elastase Cleavage” value [20] was “+” and the “Human Elastase Cleavage” value [21] was “+++”. For the same molecule, the “Human Elastase Cleavage” value (Fmoc-AAPV-Indoxyl ester) was “+++”, the “Human Elastase Cleavage” value (Fmoc-APV-Indoxyl ester) was “+” and the “Human Elastase Cleavage” value [22] was 0. The “Human Elastase Cleavage” value (H-AAAPM-RBB) was “+”, the “Human Elastase Cleavage” value [23] was “+++” and the “Human Elastase Cleavage” value [24] was “+++”. The “Human Elastase Cleavage” value [25] was “+++”, the “Human Elastase Cleavage” value [26] was “+++” and the “Human Elastase Cleavage” value [27] was 0. The “Human Elastase Cleavage” value [28] was “++”, the “Human Elastase Cleavage” value [29] was “++” and the “Human Elastase Cleavage” value [30] was “+++”. For the same molecule, the “Human Elastase Cleavage” value [31] was “+++”.

B2: cathepsin G (protein)
chain: IIGGRESRPHSRPYMAYLQIQSPAGQSRCGGFLVREDFVLTAAHCWGSNINVTLGAHNIQRRENTQQHITARRAIRHPQYNQRTIQNDIMLLQLSRRVRRNRNVNPVALPRAQEGLRPGTLCTVAGWGRVSMRRGTDTLREVQLRVQRDRQCLRIFGSYDPRRQICVGDRRERKAAFKGDSGGPLLCNNVAHGIVSYGKSSGVPPEVFTRVSSFLPWIRTTMRS
In the case of B2, the “Cathepsin Cleavage” value [32] is reported as 0, the “Cathepsin Cleavage” value (CMC 9M31F-AAPF-RBB [33]) is reported as “++” and the “Cathepsin Cleavage” value (CMC 9M31F-AAPFA-RBB [34]) is reported as “++”. The “Cathepsin Cleavage” value (Fmoc-AAA-indoxyl ester) was 0, the “Cathepsin Cleavage” value (Fmoc-AAAA-Indoxyl ester) was 0 and the “Cathepsin Cleavage” value (Fmoc-AAAPM-RBB) was 0. For the same molecule, the “Cathepsin Cleavage” value (Fmoc-AAPA-Indoxyl ester) was 0, the “Cathepsin Cleavage” value (Fmoc-AAPF-Indoxyl ester) was 0 and the “Cathepsin Cleavage” value [35] was 0. For the same molecule, the “Cathepsin Cleavage” value (Fmoc-AAPV-(2-Napthol)) was 0, the “Cathepsin Cleavage” value [19] was 0 and the “Cathepsin Cleavage” value [20] was 0. For the same molecule, the “Cathepsin Cleavage” value [36] was 0, the “Cathepsin Cleavage” value (Fmoc-APV-Indoxyl ester) was 0 and the “Cathepsin Cleavage” value [22] was 0. The “Cathepsin Cleavage” value (H-AAAPM-RBB) was 0, the “Cathepsin Cleavage” value (H-AAPF-RBB) was 0 and the “Cathepsin Cleavage” value (H-AAPFA-RBB) was 0. The “Cathepsin Cleavage” value (H-AAPVAA-RBB) was 0, the “Cathepsin Cleavage” value [37] was “+” and the “Cathepsin Cleavage” value [38] was “+”.
